These are literature values, as cited in PMC4705221.

Like-named read-outs stand apart in the source and are kept apart here.

Broadly, the Kd is the free concentration of one partner at which half of the binding sites on the other are occupied at equilibrium, for simple one-to-one binding.

In data set [1] the target is MK2 (Homo sapiens) (UniProt P49137).
Data set [2] has the same target. This is another data set of the same source.

UniProt P49137, sequence (P49137 whole entry): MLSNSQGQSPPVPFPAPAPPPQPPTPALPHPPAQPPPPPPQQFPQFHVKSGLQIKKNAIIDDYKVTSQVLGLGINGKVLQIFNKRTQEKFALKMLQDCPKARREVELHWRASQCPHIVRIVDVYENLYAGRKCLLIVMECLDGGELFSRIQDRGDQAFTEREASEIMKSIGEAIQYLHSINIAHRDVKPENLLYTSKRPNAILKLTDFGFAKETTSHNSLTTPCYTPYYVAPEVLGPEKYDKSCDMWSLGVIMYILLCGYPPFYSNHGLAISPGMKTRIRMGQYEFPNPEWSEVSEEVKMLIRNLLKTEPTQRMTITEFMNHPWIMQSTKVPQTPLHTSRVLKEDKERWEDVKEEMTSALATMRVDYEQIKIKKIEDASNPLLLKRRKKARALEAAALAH

Take p38α (from UniProt Q16539): the equilibrium dissociation constant (Kd) is 2.5 nM with MK2 (Homo sapiens) [1] and 60 nM with MK2 (Homo sapiens) [2].
